# From the nanobody polyreactivity screen of Harvey et al. (2022)
# Assay: yeast display, Sf9 membrane polyspecificity reagent, FACS + sequencing; frameworks hold sequencing errors
# Procedure, shortened: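 A synthetic nanobody library was expressed on Saccharomyces cerevisiae BJ5465 by galactose induction for 36–48 hours. The library was stained for 1 hour at 4 °C with 10% biotinylated, detergent-solubilized Sf9 membrane reagent and enriched with streptavidin microbeads before FACS. Low and high (top ~1%) gates were set on anti-HA fluorescence for expression and streptavidin fluorescence for reagent binding, and each polyreactivity label reflects the gate of origin.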
row,Sequence,polyreactivity (PSR sort gate)
1,QVQLVESGGGLVQAGGSLRLSCAASGIIFEGYAMGWYRQAPGKERELVAAISQSGGSTRYADSVKGRFTISRDNAKNTVYLQMNSLKPEDTAVYYCAKEVWNWGPYYYWGQGTQVTVSS,low polyreactivity
2,QVQLVESGGGLVQAGGSLRLSCAASGIIFELYAMGWYRQAPGKEREFVAAINFSDGSTDYADSVKGRFTISRDNAKNTVYLQMNSLKPEDTAVYYCNADTIAYGSIIHGYWGQGTQVTVSS,low polyreactivity
3,QVQLVESGGGLVQAGGSLRLSCAASGIIFESYAMGWYRQAPGKERELVAAISWDGGSTYYADSVKGRFTISRDNAKNTVYLQMNSLKPEDTAVYYCAAESYGIYDGYDYWGQGTQVTVSS,high polyreactivity
4,QVQLVESGGGLVQAGGSLRLSCAASGIIFEYYAMGWYRQAPGKERELVAAITRGGSTYYADSVKGRFTISRDNAKNTVYLQMNSLKPEDTAVYYCAADRYYYEYEYWGQGTQVTVSS,low polyreactivity
5,QVQLVESGGGLVQAGGSLRLSCAASGIIFFKYGMGWYRQAPGKERELVAAITSGGSTYYADSVKGRFTISRDNAKNTVYLQMNSLKPEDTAVYYCNAQRYWRKVWEYESWGQGTQVTVSS,low polyreactivity
6,QVQLVESGGGLVQAGGSLRLSCAASGIIFFLYAMGWNRQAPGKERELVAAISSGGSTYYADSVKGRFTISRDNAKYTVYLQMNSLKPEDTAVYYFIARYWPFRYYYWGQGTQVTVSS,high polyreactivity
7,QVQLVESGGGLVQAGGSLRLSCAASGIIFFSNTMGWYRQAPGKEREFVAAITWSTGNTYYADSVKGRFTISRDNAKNTVYLQMNSLKPEDTAVYYCYAEYLVITWYGGVEFDYWGQGTEVTVSS,low polyreactivity
8,QVQLVESGGGLVQAGGSLRLSCAASGIIFGGYAMGWYRQAPGKERELVAAIDSSGSSTYYADSVKGRFTISRDNAKNTVYLQMNSLKPEDTAVYYCNAASSGHSGRLTSIINDYWGQGTQVTVSS,high polyreactivity
9,QVQLVESGGGLVQAGGSLRLSCAASGIIFGLNAMGWYRQAPGKERELVAAIRRRGGSTYYADSVKGRYTISRDNAKTTVYLQMNSLKPEDTAVYYCAAAGGRYSRAAYDYWGQGTQVTVSS,low polyreactivity
10,QVQLVESGGGLVQAGGSLRLSCAASGIIFGLYAMGWYRQAPGKERELVAAITRSGGRTYYADSVKGRFTISRDNAKNTVYFQMNSLKPEDTAVYFCAADASGHSYDYWGQGTEVTVSS,high polyreactivity
11,QVQLVESGGGLVQAGGSLRLSCAASGIIFGRYAMGWYRQAPGKERELVAAINASGGSTYYADSVKGRFTISRDNAKNTVYLQMNSLKPEDTAVYYCATVHVWGFVYVGSGYWGQGTQVTVSS,high polyreactivity
12,QVQLVESGGGLVQAGGSLRLSCAASGIIFGRYAMGWYRQAPGKERELVAAINGSGGSTYYADSVKGRFTISRDNAKNTVYLQMNSLKPEDTAVYYCAANGFLRNGYWGQGTQVTVSS,high polyreactivity
13,QVQLVESGGGLVQAGGSLRLSCAASGIIFGRYAMGWYRQAPGKERELVAAISSRGGSTYYADSVKGRFTISRDNAKNTVYLQMNSLKPEDTAVYYCNKDDERGKLYYWGQGTQVTVSS,high polyreactivity
14,QVQLVESGGGLVQAGGSLRLSCAASGIIFGRYAMGWYRQAPGKERELVAAITWSGGGTYYADSVKGRFTISRDNAKNTVYLQMNSLKPEDTAVYYCAARTTPHWGYVSTNYWGQGTQVTVSS,low polyreactivity
15,QVQLVESGGGLVQAGGSLRLSCAASGIIFGRYAMGWYRQAPGKERELVATSSRGGGRTYYADSVKGRFTISRDNAKYTVYLLMNSLIPEDTAVYYCASYFYRGGLDSWGQGTQVTVSS,high polyreactivity
16,QVQLVESGGGLVQAGGSLRLSCAASGIIFGRYARGWYRQAPGKDRELVATISYRGGRTNYADSVKGRFTISRDNAKNTVYLQSNSLKPEDTAVYDCAAPHFSYSGGTHDYWGQGTQVTVSS,high polyreactivity

row,Sequence,polyreactivity (PSR sort gate)
1,QVQLVESGGGLVQAGGSLRLSCAASGIIFGRYTMGWYRQAPGKERELVAAITSSGITYYADSVKGRFTISRDNAKNTVYLQMNSLKPEETAVYYCNADYSIPGYYWPYDYWGQGTQVTVSS,low polyreactivity
2,QVQLVESGGGLVQAGGSLRLSCAASGIIFGSNTMGWYRQAPGTERELVAAITSSDGSTHYADSVKGRFTISRDNAKNTVYLQMNRLKPEDTAVYYCAARKVTYGHSYGYDYWGQGTQVTVSS,low polyreactivity
3,QVQLVESGGGLVQAGGSLRLSCAASGIIFGSNVMGWYREAPGIERELVAAINYGGGSTYYADSVKGRFTISRDNAKKTVYLQMNSLKPEDTAVYYCAARGSRDYRYDYWGQGTQVTVSS,low polyreactivity
4,QVQLVESGGGLVQAGGSLRLSCAASGIIFGTYTMGWYRQAPGKERELVAAITYSGGRTYYADSVKGRFTISRDNAKNTVYLQMNSLKPEDTAVYYCAAYRSSWGYSPYDYWGQGTQVTVSS,high polyreactivity
5,QVQLVESGGGLVQAGGSLRLSCAASGIIFGYNAMGWYRQAPGKERELVAAINQDGSSTYYADSVKGRFTISRDNAKNTVYLQMNSLKPEDTAVYYCNARGVPRQDARMGYWGQGTQVTVSS,low polyreactivity
6,QVQLVESGGGLVQAGGSLRLSCAASGIIFGYNAMGWYRQAPGKERELVAAISTSGGSTYYADSVKGRFTISRDNAKNTVYLQMNSLKPEDTAVYYCAAGYRRTYGFNYWGQGTQVTVSS,low polyreactivity
7,QVQLVESGGGLVQAGGSLRLSCAASGIIFGYYAMGWYRQAPGKERELVAAITWSGGSTYYADSVKGRFTISRDNAKNTVYLQMNSLKPEDSAVYYCNADDDGRVSSTIVEYWGQGTQVTVSS,low polyreactivity
8,QVQLVESGGGLVQAGGSLRLSCAASGIIFGYYAMGWYRQAPGKERELVAGISSSDSTYYADSVKGRFTISRDNAKNTVYLQMNSLKPEDTAVYYCATPVYRSTYEYDYWGQGTQVTVSS,low polyreactivity
9,QVQLVESGGGLVQAGGSLRLSCAASGIIFGYYAMGWYRQATGKERELVAAINGRTGSTYYADSVKGRFTISRDNAKNTVYLQMNSLKPEDTAVYYCTAQSYKFHGDYWGQGTQVTVSS,high polyreactivity
10,QVQLVESGGGLVQAGGSLRLSCAASGIIFGYYARGWYRQAPGKARELVAAISRGGNTNYADSVKGRFTISRDNAKNTVYLQMNSLKPEDTAVYYCAADFWSRIKYFYAVDVDYWGQGTQVTVSS,low polyreactivity
11,QVQLVESGGGLVQAGGSLRLSCAASGIIFHFNAMGWYRQARGKERELVASITRGGNTNYADSVKGRFTISRDNAKNTVYLQMNSLKPEDTAVYYCAAKYRSRYDWGQGTQVTVSS,low polyreactivity
12,QVQLVESGGGLVQAGGSLRLSCAASGIIFHFNDMGWYRQAPGKERELVAAIDSTGSTNYADSVKGRFTISRDNAKNTVYLQMNSLKPEDTAVYYCAVLNHRVDSVLTRYYYWGQGTQVTVSS,low polyreactivity
13,QVQLVESGGGLVQAGGSLRLSCAASGIIFHKYSMGWYRQAPGKERELVAVITWRGGTTYYADSVKGRFTISRDNAKNTVYLQMNSLKPEDTAVYYCAAKDRSPRVRYQYEYWGQGTQVTVSS,high polyreactivity
14,QVQLVESGGGLVQAGGSLRLSCAASGIIFIGYTMGWYRQAPGKERELVAAISRIGGSTYYADSVKGRFTISRDNAKNTVYLQMNSLKPEDTAVYYCAAQYYGSSYRRGYYWGQGTQVTVSS,high polyreactivity
15,QVQLVESGGGLVQAGGSLRLSCAASGIIFINYAMGWYRQAPGTERELVAVITRGGSTYYADSVKGRFTISRDNAKNTVYLQMNSLKPEDTAVYYCNARYLSWWTGRFNYWGQGTQVTVSS,high polyreactivity
16,QVQLVESGGGLVQAGGSLRLSCAASGIIFITYAMGWYRQAPGKERELVAAITNSGGGTYYADSVKGRFTISRDNAKNTVDLQMTSLKPEDTAVYYCAARKTAYGYRYDYWGQGTQVTVSS,high polyreactivity
